This is an account of results in IntAct's records for PubMed 22791719.

To fix the notation:
B1: Phospholipid-transporting ATPase accessory subunit CRF1 (Saccharomyces cerevisiae), P53740 (parent)
chain: MGLILRWKEKKQLSSKQNAQKSRKPANTSFRQQRLKAWQPILSPQSVLPLLILMACVFAPIGIGLVVSTISVQRLVVNYTECDALAPAKHFETIPSEYVDYHFSKKVAVQPQWMVLTDPELGNQTCRIQFEVPNHIKKSTYVYYRLTNFNQNYREYVQSLDLDQLKGKALIGNDLDPNCDPLRTVENKTIFPCGLIANSMFNDTFGTTLTGVNDTADYLLTTKGIAWDTDSHRYGKTEYNASDIVPPPNWAKLFPNGYTDDNIPDLQNWEQFKIWMRTAALPNFYKLAMKNETNGLGKGIYIADIELNYPVRSFYGTKSFVLTTNSIIGAGNEALGIVYLIVAGIATLFAILFLIKVIFKPRPMHDHSYLNFENSDTPFDESSVVSIPLREIL

The experiment covers variants of B1. To be noted: with atc8_yeast DNF3, Q12674.
Chain of atc8_yeast DNF3, Q12674 (Q12674 whole entry): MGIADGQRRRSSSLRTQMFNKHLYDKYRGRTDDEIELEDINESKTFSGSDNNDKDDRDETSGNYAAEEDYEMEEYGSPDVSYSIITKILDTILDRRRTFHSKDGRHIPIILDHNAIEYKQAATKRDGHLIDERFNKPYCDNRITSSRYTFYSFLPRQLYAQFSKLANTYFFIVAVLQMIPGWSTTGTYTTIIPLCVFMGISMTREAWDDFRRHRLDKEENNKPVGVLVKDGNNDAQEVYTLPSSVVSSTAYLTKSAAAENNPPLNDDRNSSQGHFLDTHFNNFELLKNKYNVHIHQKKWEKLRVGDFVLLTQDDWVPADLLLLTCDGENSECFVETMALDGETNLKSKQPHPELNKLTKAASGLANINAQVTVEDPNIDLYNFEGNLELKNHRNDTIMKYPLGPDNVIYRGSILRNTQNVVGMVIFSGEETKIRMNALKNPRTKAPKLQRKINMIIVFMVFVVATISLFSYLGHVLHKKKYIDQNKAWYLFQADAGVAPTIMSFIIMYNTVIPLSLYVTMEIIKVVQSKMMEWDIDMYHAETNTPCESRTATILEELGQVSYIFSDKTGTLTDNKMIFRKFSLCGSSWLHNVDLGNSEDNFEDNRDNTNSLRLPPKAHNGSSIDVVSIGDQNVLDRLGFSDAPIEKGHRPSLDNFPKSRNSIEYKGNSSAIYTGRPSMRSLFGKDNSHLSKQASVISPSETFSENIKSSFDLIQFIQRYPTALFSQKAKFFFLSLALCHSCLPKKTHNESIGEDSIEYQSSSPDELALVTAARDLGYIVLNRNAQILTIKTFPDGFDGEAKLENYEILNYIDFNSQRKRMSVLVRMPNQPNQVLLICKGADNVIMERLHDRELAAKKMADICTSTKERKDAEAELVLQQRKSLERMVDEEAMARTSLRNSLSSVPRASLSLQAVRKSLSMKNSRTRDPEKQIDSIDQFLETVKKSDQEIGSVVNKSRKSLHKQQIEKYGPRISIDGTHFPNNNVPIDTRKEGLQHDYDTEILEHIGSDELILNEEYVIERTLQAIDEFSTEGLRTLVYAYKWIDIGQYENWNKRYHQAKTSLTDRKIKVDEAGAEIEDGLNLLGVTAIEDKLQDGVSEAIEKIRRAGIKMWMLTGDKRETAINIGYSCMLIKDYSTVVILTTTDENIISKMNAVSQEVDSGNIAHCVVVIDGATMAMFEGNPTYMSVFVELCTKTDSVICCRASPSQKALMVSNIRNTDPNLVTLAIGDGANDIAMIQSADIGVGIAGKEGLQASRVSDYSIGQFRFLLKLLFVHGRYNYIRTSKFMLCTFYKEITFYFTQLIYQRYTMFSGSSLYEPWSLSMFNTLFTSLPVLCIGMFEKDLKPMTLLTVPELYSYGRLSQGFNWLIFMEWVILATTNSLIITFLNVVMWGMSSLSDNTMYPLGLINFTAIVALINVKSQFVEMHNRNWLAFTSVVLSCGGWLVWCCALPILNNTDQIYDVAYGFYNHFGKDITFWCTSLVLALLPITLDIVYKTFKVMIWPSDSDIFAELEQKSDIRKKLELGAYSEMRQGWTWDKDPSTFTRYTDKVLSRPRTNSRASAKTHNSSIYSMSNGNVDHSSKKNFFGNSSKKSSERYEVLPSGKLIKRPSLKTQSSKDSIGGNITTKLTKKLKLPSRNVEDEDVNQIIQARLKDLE
Turning to C126A, the “effect of a mutation on the interaction” value is “disrupting interaction strength”. For C179A the value was “decreasing interaction strength”.

Regarding C82A, the “effect of a mutation on the interaction” value was “disrupting interaction strength”.
